For assay [1], the target named is T1, SUDV GPdTM (Sudan virus (SUDV), UniProt Q66814 33-637).
T1 sequence: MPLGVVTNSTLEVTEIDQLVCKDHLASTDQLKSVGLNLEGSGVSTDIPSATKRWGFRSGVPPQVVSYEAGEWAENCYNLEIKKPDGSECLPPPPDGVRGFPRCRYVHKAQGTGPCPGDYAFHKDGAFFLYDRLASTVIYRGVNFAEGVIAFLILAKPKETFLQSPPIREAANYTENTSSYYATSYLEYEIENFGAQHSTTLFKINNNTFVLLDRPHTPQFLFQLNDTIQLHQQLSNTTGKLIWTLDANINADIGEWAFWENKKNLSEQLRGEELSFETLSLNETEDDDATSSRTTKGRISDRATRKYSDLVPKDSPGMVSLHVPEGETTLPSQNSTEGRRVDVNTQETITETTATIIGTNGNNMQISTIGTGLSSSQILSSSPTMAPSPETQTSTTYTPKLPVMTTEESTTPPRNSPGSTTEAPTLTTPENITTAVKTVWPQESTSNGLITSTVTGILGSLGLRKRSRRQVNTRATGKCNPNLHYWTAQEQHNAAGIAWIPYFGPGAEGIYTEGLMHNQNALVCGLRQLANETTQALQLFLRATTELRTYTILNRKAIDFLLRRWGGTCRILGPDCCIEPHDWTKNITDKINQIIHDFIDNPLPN

For assay [2], the target named is SUDV GPddmuc (Sudan virus (SUDV), UniProt Q66814 33-632).
Assay [3] has as its target T2, MARV GPddmuc (Marburg virus (MARV), UniProt P35253 19-637).
T2 construct: also called Marburg virus glycoprotein GPddmuc
Put plainly: ELISA, purified GPddmuc immobilized, serial dilutions of purified mouse mAb. On the technique in general: In an ELISA, binding on a coated surface is turned into a signal by an enzyme label.

B1: murine monoclonal antibody 16G8 (antibody, V domains shown)
VH: EVQLQESGPGLVKPGASVKISCKASGYSFTGYYMNWVKQSPEKSLEWIGEINPSTGGTTYNQKFKAKATLTVDKSSSTAYMQLKSLTSEDSAVYYCVRYSHYYGSGSWYFDVWGTGTTVTVSS
VL: DIQMTQSPASLSASVGETVTITCRASENIYSNLAWYQQKQGKSPQLLVNAATNLADGVPSRFSGSGSGTQFSLKINSLQPEDFGSYYCQHFYVTPYMFGSGTKLEIKR
notes: also called m16G8
For orientation: EC50 means the concentration that produces a half-maximal response. In turn, B1 returned an EC50 in assay [1] above 10 µg/mL.

B2: murine monoclonal antibody 4B8 (antibody, V domains shown)
VH: EVQLQESGPGILQPSQTLSLTCSFSGFSLRTLGMGVGWIRQSSGKGLEWLAHIWWSDENYYNPALKSRLTISKDTSKNQVFLRIANVDTAETATYYCARIAYDGYFDYWGQGTSLTVSS
VL: KFPSQLLLLLLFGIPGDRVTITCKASEDIYNRLAWYQQKPGNAPRLLISGATSLETGVPSRFSGSGSGKDYTLSITSLQTEDVATYYCQQYWTTPWTFGGGTKLEIKR
notes: also called m4B8
Take B2: the EC50 in assay [1] was 0.088 µg/mL; in assay [2] it was 0.095 µg/mL. Further, the binding result in assay [3] was “no binding”.

B3: murine monoclonal antibody 8C4 (antibody, V domains shown)
VH: EVQLQESGPELKKPGETVKISCKASGYTFTTYGMSWVKQAPGKGLKWMGRINTYSGVPTYADEFKGRFAFSLENSASTAYLQINNLKNEDTATYFCARGDGGHWFANWGQGTLVTVSA
VL: DIQMTQSPSSLSASLGGKVTITCKASQDINKNIAWYQHKPGKGPRLLIWYKSALQPGIPSRFSGSGSGRDYSFSISNLEPEDIATYSCLQYDNLPPTFGGGTKLEIKR
notes: also called m8C4
The molecule B3 came in with an EC50 in assay [1] of 0.15 µg/mL.

B4: murine monoclonal antibody 17C6 (antibody, V domains shown)
VH: EVQLQESGPGLVQPSQSLSITCTVSGFSLTSYGVHWVRQSPGKGLEWLGVIWSGGSTDYNAAFISRLSISKDNSKSQVFFKMNSLQADDTAIYYCARNWFDYDNYYSMDYWGQGTSVTVSS
VL: DIQMTQTTSSLSASLGDRVTISCRASQDISNYLNWYQQKPDGTVKLLIYYTSRLHSGVPSRFSGSGSGTDFSLTISNQEPEDIATYYCQQYSNLPWTFGGGTKLEIKR
As to B4, a half-maximal effect in assay [1] (EC50) was put at 2 µg/mL.

B5: murine monoclonal antibody 2D8 (antibody, V domains shown)
VH: EVQLQESGGELVRPGTSVKISCKASGYTFTNFWLGWIKERPGHGLEWIGDIYPGGHYTNYNENFKGKATLTADTSSNTAYMQVSSLTSEDSAVYFCFTQYYDMDYWGQGTSVTVSS
VL: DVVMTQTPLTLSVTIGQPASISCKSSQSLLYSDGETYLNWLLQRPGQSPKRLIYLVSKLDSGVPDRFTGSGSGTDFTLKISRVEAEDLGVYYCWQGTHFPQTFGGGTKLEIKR
Molecule B5 showed an EC50 in assay [1] above 10 µg/mL.

For the origin of these results see US20180237502A1 (INTEGRATED BIOTHERAPEUTICS, published 2018).
